Laboratory results published in the supplement of paper PMC9170038.

Test system: MS2 coat protein
Experiment: apparent KD of MS2 coat protein; designed switch direction (-1 OFF switch, 1 ON switch): -1; higher = weaker reporter binding
In short: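 RNA switches sharing common flanks were transcribed by stalled E. coli RNA polymerase on Illumina chips. A doubling series of SNAP-549-labelled MS2 coat protein, from 0.7 or 1.5 nM to 3 µM, was applied in Tris-HCl pH 7.5 buffer with KCl, MgCl2, BSA, DTT, tRNA and Tween-20. Each step lasted 0.8–1.5 h at the bottom of the series and 10–20 min at the top. Normalised cluster fluorescence was curve-fitted, giving apparent KD as the per-design median over clusters.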

[1] = Eterna round: R95, input ligand: microRNA oligo, concentration not stated
[2] = Eterna round: R95, input ligand: FMN 200 uM
[3] = Eterna round: R95, input ligand: none
[4] = input ligand: microRNA oligo, concentration not stated

Row | Sequence | apparent KD of MS2 coat protein [1] [nM] | apparent KD of MS2 coat protein [2] [nM] | apparent KD of MS2 coat protein [3] [nM] | apparent KD of MS2 coat protein [4] [nM] | apparent KD of MS2 coat protein (input ligand: FMN 200 uM) [nM] | apparent KD of MS2 coat protein (input ligand: none) [nM]
1 | UUUUUGUCAGGAUAUGAGUCGUAGAACAAUAGUACUACGUCUCAGAAGGGACAUGAGGAUCACCCAUGUGCCUC [Fiskers Ex 4 Super Stable 44 mod 28] (puzzle: Exclusion 4) | 26.2 |  |  |  |  | 
2 | AUUAAAAUAUAGGAUAUCGAAUUUAUUAUUUAACGAGAAGGAUGAACAUGAGGAUCACCCAUGUGGUAUCAUGG [Mat - Exclusion 6 - JL Mod - D35] (puzzle: Exclusion 6) | 156 | 177 | 189 |  |  | 
3 | CUGCUCCGUGUAGGAUAUCCGGGCAACCAAUCCGGAGAAGGACAUGAGGAUCACCCAUGUAUGUUAUUAUCACGUGAAGCGUCC [Design 25] (Eterna round: R96, puzzle: Exclusion NG 1) |  |  |  | 15.6 |  | 
4 | UGUACUAUGCGUGCUGACAUGCGUAGUGCAGCAGGUGUAACAUGAGGAUCACCCAUGUCCUCAUUUGCUCGUCUUAA [Mat - Sensor v3 - Turn-off var 2 - D14] (puzzle: Sensor v3, turn-off variant 2) | 335 | 207 |  |  |  | 
5 | AUAUGUAACUAGGAUAUCAGCAUACUUCAAUGUUGAGAAGGAGUUACAUGAGGAUCACCCAUGUAUCCAACAUG [Exclusion 6 - 3] (Eterna round: R96, puzzle: Exclusion 6) |  |  |  | 56.7 | 73.3 | 67.1
6 | AAGACACUUAGAGGAUAUGUGAAAGGAAGUGUAACAGAAGGCUAGGUGAGAACAUGAGGAUCACCCAUGUGAUCACAUGCCAAA [PowerStrip EXNG 1.27] (Eterna round: R96, puzzle: Exclusion NG 1) |  |  |  | 11.9 | 20 | 12.1
7 | GUAUAACUACACGGGCUCAACAUGAGGAUCACCCAUGUAAUAUACGCAAGCUUUUUGCUUGUCUUAUCUGUCCGUGA [Aanrius] (puzzle: Sensor v3, turn-off variant 1) | 9.56 | 12.3 | 11.4 |  |  | 
8 | AUUUUGUCAGGAUAUGAUUAGUAGGAUGAGAGUGCUACUACUUAGAAGGGACAUGAGGAUCACCCAUGUAUUCC [Bring Us a Shrubbery-07] (puzzle: Exclusion 4) | 14.7 |  |  |  |  | 
9 | UACAUGAGGAUCACCCAUGUUUUGUCGUGUAUGGUAUUUAUCUAGGAUAUCAAUCUAUGUAUUUAUGAGAAGGAGAAUAUUAAU [JMF's solution 51] (Eterna round: R96, puzzle: Exclusion NG 3) |  |  |  | 31 |  | 
10 | GAGCAGCGAGGAUAUACAGACGGGUCCAGUACGUGUCUUGGACUUGAGGAUCACCCAAGUAGAAGGCGUCUCAG [salish99_ex2_r4_608] (Eterna round: R97, puzzle: Exclusion 2) |  |  |  |  | 86.8 | 44.3
11 | AAUAACAGAGGAUAUACGAAAAUAAGCGGAAACGCAAAGGGACAUGAGGAUCACCCAUGUAGAAGGCUGGAUAA [Tetraloop... 61% 2] (Eterna round: R96, puzzle: Exclusion 2) |  |  |  | 19.6 | 204 | 34.2
12 | UCAUGUUUAGAGGAUAUGAUUACUCUAGAGUGAUCAGAAGGCUAGACAUGAGGAUCACCCAUGUCAGAACAUGC [Exclusion 6 - B - 17:b] (puzzle: Exclusion 6) | 24.7 | 17.7 | 31.9 |  |  | 
13 | AGCCUGGGUUCGCCCAGGUACAUGAGGAUCACCCAUGUCAUGGGUACUUGUGUUGGUAGGCAGUGUGCUCGUCUUAU [Cac Sensor turnoff v1 sub10] (Eterna round: R97, puzzle: Sensor, turn-off variant 1) |  |  |  |  | 719 | 1050
14 | GGAUCACAUGUCAGGAUAUCCGGGCAGAGUGGCCAGGAGAAGGGACAUGAGGAUCACCCAUGUUGCUUAAAAUU [Bierorerqu] (puzzle: Brourd's mod of Exclusion 4) | 69.9 | 34.8 | 157 |  |  | 
15 | UUUUGGUAAGGAUAUGAAUCGAUCUCGGAAACGAGAUCGAUUCAGAAGGUACAUGAGGAUCACCCAUGUUGAUU [Mod of Brourd 7 - Jieux - Exclusion 4] (Eterna round: R97, puzzle: Exclusion 4) |  |  |  |  | 119 | 26
16 | AAUUUGUCAGGAUAUUGUUAGUUUAGUUGUUUGUAUUAGUUCGAGAAGGGACAUGAGGAUCACCCAUGUGAAAA [Ex4 #70] (Eterna round: R97, puzzle: Exclusion 4) |  |  |  |  | 39.2 | 53.4
17 | GACUUGUUAGGAUAUCUUACAUUUGCAUUAUAGCAACUAUUGGAGAAGGGACAUGAGGAUCACCCAUGUUUGGG [tap-tap-tappy17] (Eterna round: R97, puzzle: Exclusion 4) |  |  |  |  | 504 | 479
18 | AGAAAUGCCCAUGGCCGCAAGCUUUUUACUUGUCUUACCACAUGAGGAUCACCCAUGUGACAUGGAAACCUUAUGAU [Sensor v3, turn-off variant 2 (MOD of Oranla v.2)] (puzzle: Sensor v3, turn-off variant 2) | 97 | 30.3 | 28.1 |  |  | 
19 | CUUCAUUGUUGAGGAUAUAAUUAUAGGAUGUAGUUAGAAGGCGAACAUGAGGAUCACCCAUGUCAGGCAUGGAGACCCUUGACC [Eternabot solution 8] (Eterna round: R96, puzzle: Exclusion NG 1) |  |  |  | 308 |  | 
20 | AGAUUACAUGAGGAUAUCGUAUUGGAUAUAGUGCGAGAAGGCAUGACAUGAGGAUCACCCAUGUAGUGUUGGGA [JR_Ex6_Sub010] (Eterna round: R97, puzzle: Exclusion 6) |  |  |  |  | 117 | 187
21 | UUGUGCACGCUGCGGUCCUACAUGAGGAUCACCCAUGUGGUCUGGUGGCGUGGGUCGCCGGACUUGGCUCGUCUUGG [salish99_S_TOV1_R5_026] (Eterna round: R97, puzzle: Sensor, turn-off variant 1) |  |  |  |  | 16.9 | 16.9
22 | AACUAUGAAGGAUAUACAUGAGGAUCACCCAUGUUGAACUUGGCAUGUGCUCACAGAUGUAGAAGGUCAACCGU [Eternabot (Original) Solution 22] (Eterna round: R97, puzzle: Exclusion 3) |  |  |  |  | 128 | 43
23 | GCAGCAUAGUUAACAGACUGUUACAUGAGGAUCACCCAUGUACAGGAUAUGGUCUGGAUUACAGGCCAGAAGGGUACAAGCUGC [Eli exng3 - 019] (Eterna round: R96, puzzle: Exclusion NG 3) |  |  |  | 8.94 | 10.1 | 11.6
24 | UACAUGAGGAUCACCCAUGUUUUGUCGUGUUUGGUACCCGUUUAGGAUAUCGUGUUAUUGGAUCGCGAGAAGGAGAGUAUCUUU [Excl-NG3-LRO08] (Eterna round: R96, puzzle: Exclusion NG 3) |  |  |  | 26 | 26.8 | 31.7
25 | GUAAUGAUUGUGAGGAUAUUUCAUAGAUAGAUAUUAGAGAAGGUACAUGAGGAUCACCCAUGUGUGAUCAUACA [Brourd's EX4 #73] (Eterna round: R97, puzzle: Brourd's mod of Exclusion 4) |  |  |  |  | 672 | 1050
